Source: paper PMC9927946

Target: 2P-IRS-1 (bisphosphorylated IRS-1 peptide), labeled with Cy5
Experiment: MST; Monolith NT.115; 100 nM Cy5-labeled 2P-IRS-1, unlabeled protein serially diluted; 25 °C; n=3

Substance	Kd
NEDD8-SHP2 conjugation (SHP2 neddylated in the in vitro neddylation assay) (from UniProt Q06124 1-593; Q15843 1-76) (complex)	> 1000 µM
SHP2 WT recombinant protein (Src homology region 2-containing protein tyrosine phosphatase 2) (from UniProt Q06124 1-593) (enzyme)	473 µM
